According to patent US20230287120A1 (ALLOGENE THERAPEUTICS, published 2023):

B1: 4F9 (other)
CAR: QVQLQQWGAGLLKPSETLSLTCAVYGGSFSGYYWTWIRQPPGKGLEWIGEITHSGSTNYNPSLKSRVSISVDTSKNQFSLKLSSVTAADTAVYYCARGEYGSGSRFDYWGQGTLVTVSSGGGGSGGGGSGGGGSGGGGSAIQMTQSPSSLSASVGDRVAITCRASQGIRDDLGWYQQKPGKAPKLLIYAASSLQSGVPSRFSGSGSDTDFTLTISSLQPEDFATYYCLQDYDYPLTFGGGTKVEIKTTTPAPRPPTPAPTIASQPLSLRPEACRPAAGGAVHTRGLDFACDIYIWAPLAGTCGVLLLSLVITKRGRKKLLYIFKQPFMRPVQTTQEEDGCSCRFPEEEEGGCELRVKFSRSADAPAYQQGQNQLYNELNLGRREEYDVLDKRRGRDPEMGGKPRRKNPQEGLYNELQKDKMAEAYSEIGMKGERRRGKGHDGLYQGLSTATKDTYDALHMQALPPR
notes: also called anti-DLL3 CAR with 4F9 scFv, on primary T cells
B2: 3E4 (other)
CAR: QVQLQQWGAGLLKPSETLSLTCAVYGGSFSGYYWSWIRQPPGKGLEWIGEIIHSGSSNYNPSLKSRVSISVDTSKNQFSLKLSSVTAADTAVYYCSRGEYGSGSRFDYWGQGTLVTVSSGGGGSGGGGSGGGGSGGGGSAIQMTQSPSSLSASVGDRVAITCRASQGIRDDLGWYQQKPGKAPKLLIYAASSLQSGVPSRFSGSRSDTDFTLTISSLQPEDFATYYCLQDYDYPLTFGGGTKVEIKTTTPAPRPPTPAPTIASQPLSLRPEACRPAAGGAVHTRGLDFACDIYIWAPLAGTCGVLLLSLVITKRGRKKLLYIFKQPFMRPVQTTQEEDGCSCRFPEEEEGGCELRVKFSRSADAPAYQQGQNQLYNELNLGRREEYDVLDKRRGRDPEMGGKPRRKNPQEGLYNELQKDKMAEAYSEIGMKGERRRGKGHDGLYQGLSTATKDTYDALHMQALPPR
notes: also called anti-DLL3 CAR with 3E4 scFv, on primary T cells
B3: 4G9 (other)
CAR: QVQLQQWGAGLLKPSETLSLTCAVYGGSFSGYYWSWIRQPPGKGLEWIGEITHSGSTNYNPSLKSRVSISVDTSKNQFSLKLSSVTAADTAVYYCARGEYGSGSRFDYWGQGTLVTVSSGGGGSGGGGSGGGGSGGGGSAIQMTQSPSSLSASVGDRVALTCRASQGIRDDLGWYQQKPGKAPKLLIYAASSLQSGVPSRFSGSGSDTDFTLTISSLQPEDFATYYCLQDYDYPLTFGGGTKVEIKTTTPAPRPPTPAPTIASQPLSLRPEACRPAAGGAVHTRGLDFACDIYIWAPLAGTCGVLLLSLVITKRGRKKLLYIFKQPFMRPVQTTQEEDGCSCRFPEEEEGGCELRVKFSRSADAPAYQQGQNQLYNELNLGRREEYDVLDKRRGRDPEMGGKPRRKNPQEGLYNELQKDKMAEAYSEIGMKGERRRGKGHDGLYQGLSTATKDTYDALHMQALPPR
notes: also called anti-DLL3 CAR with 4G9 scFv, on primary T cells
B4: 3F2 (other)
CAR: QVQLQESGPGLVKPSGTLSLTCAVSGGSISSNNWWSWVRQPPGKGLEWIGDIHHSGSTNYKPSLKSRVTISVDKSKNQFSLNLISVTAADTAVYYCAREAGGYFDYWGQGILVTVSSGGGGSGGGGSGGGGSGGGGSDIQMTQSPSTLSASVGDRVTITCRASQSISSWLAWYQQKPGKAPKLLISKASSLESGVPSRFSGSGSGPEFTLTISSLQPADFATYYCQQYNSYSTFGQGTKLEIKTTTPAPRPPTPAPTIASQPLSLRPEACRPAAGGAVHTRGLDFACDIYIWAPLAGTCGVLLLSLVITKRGRKKLLYIFKQPFMRPVQTTQEEDGCSCRFPEEEEGGCELRVKFSRSADAPAYQQGQNQLYNELNLGRREEYDVLDKRRGRDPEMGGKPRRKNPQEGLYNELQKDKMAEAYSEIGMKGERRRGKGHDGLYQGLSTATKDTYDALHMQALPPR
notes: also called anti-DLL3 CAR with 3F2 scFv, on primary T cells
B5: 9D3 (other)
CAR: QVQLQESGPGLVKPSETLSLTCTVSDDSISNYYWSWIRQPPGKGLEWIGYIFYSGTTNHNPSLKSRLTISLDKAKNQFSLRLSSVTAADTAVYYCARVFNWGFAFDIWGQGTMVTVSSGGGGSGGGGSGGGGSGGGGSEIVLTQSPGTLSLSPGERATLSCRASQRISRTYLAWYQQKPGQAPRLLIYGASSRATGIPDRFTGSGSGTDFTLTISRLEPEDFAVYYCQQYGTSPLTFGGGTKVEINTTTPAPRPPTPAPTIASQPLSLRPEACRPAAGGAVHTRGLDFACDIYIWAPLAGTCGVLLLSLVITKRGRKKLLYIFKQPFMRPVQTTQEEDGCSCRFPEEEEGGCELRVKFSRSADAPAYQQGQNQLYNELNLGRREEYDVLDKRRGRDPEMGGKPRRKNPQEGLYNELQKDKMAEAYSEIGMKGERRRGKGHDGLYQGLSTATKDTYDALHMQALPPR
notes: also called anti-DLL3 CAR with 9D3 scFv, on primary T cells
B6: 26C8 (other)
CAR: QVQLQESGPGLVKPSETLSLTCTVSDNSISNYYWSWIRQPPGKGLEWIAYIYYSGTTNYNPSLKSRVTISLDTSKNQFSLQLSSVTAADAAVYYCARVFHWGFAFDIWGQGTMVTVSSGGGGSGGGGSGGGGSGGGGSEIVLTQSPGTLSLSPGERATLSCRASQRVSNTYLAWYQQNPGQAPRLLIYGASSRATGIPDRFSGSGSGTDFTLTISRLEPEDFAVYYCQQYGTSPLTFGGGTKVEIKTTTPAPRPPTPAPTIASQPLSLRPEACRPAAGGAVHTRGLDFACDIYIWAPLAGTCGVLLLSLVITKRGRKKLLYIFKQPFMRPVQTTQEEDGCSCRFPEEEEGGCELRVKFSRSADAPAYQQGQNQLYNELNLGRREEYDVLDKRRGRDPEMGGKPRRKNPQEGLYNELQKDKMAEAYSEIGMKGERRRGKGHDGLYQGLSTATKDTYDALHMQALPPR
notes: also called anti-DLL3 CAR with 26C8 scFv, on primary T cells
B7: 2G1 (other)
CAR: QLQLQESGPGLVKPSETLSLTCTVSGGSISSSSYYWGWIRQPPGKGLEWIGSIYYSGNIYHNPSLKSRVSISVDTSKNQFSLRLSSVTAADTAVYYCAREIIVGATHFDYWGQGTLVTVSSGGGGSGGGGSGGGGSGGGGSAIQMTQSPSSLSASVGDRVTITCRASQGIRNDLGWYQQKPGKAPELLIYAASSLQSGVPSRFSGSGSGTDFTLTISSLQPEDFATYYCLQDYNYPLTFGPGTKVDIKTTTPAPRPPTPAPTIASQPLSLRPEACRPAAGGAVHTRGLDFACDIYIWAPLAGTCGVLLLSLVITKRGRKKLLYIFKQPFMRPVQTTQEEDGCSCRFPEEEEGGCELRVKFSRSADAPAYQQGQNQLYNELNLGRREEYDVLDKRRGRDPEMGGKPRRKNPQEGLYNELQKDKMAEAYSEIGMKGERRRGKGHDGLYQGLSTATKDTYDALHMQALPPR
notes: also called anti-DLL3 CAR with 2G1 scFv, on primary T cells
B8: 11H7 (other)
CAR: QVQLQQWGAGLLKPSETLSLTCAVYGGSFSAYYWNWIRQPPGKGLEWIGEINHSGSTNYNPSLKSRVTISVDTSKNQFSLNLTSLTAADTAVYYCARGLDSSGWYPFDYWGQGTLVTVSSGGGGSGGGGSGGGGSGGGGSDIQMTQSPSSVSASVGDRVTITCRASQGISSWLAWYQQKPGKAPKLLIYAASSLQSGVPSRFSGSGSGTDFTLTISSLQPEDFATYYCQQADSFPFTFGPGTKVDIKTTTPAPRPPTPAPTIASQPLSLRPEACRPAAGGAVHTRGLDFACDIYIWAPLAGTCGVLLLSLVITKRGRKKLLYIFKQPFMRPVQTTQEEDGCSCRFPEEEEGGCELRVKFSRSADAPAYQQGQNQLYNELNLGRREEYDVLDKRRGRDPEMGGKPRRKNPQEGLYNELQKDKMAEAYSEIGMKGERRRGKGHDGLYQGLSTATKDTYDALHMQALPPR
notes: also called anti-DLL3 CAR with 11H7 scFv, on primary T cells
B9: 17A2 (other)
CAR: QVQLQESGPGLVKPSGTLSLTCVVFGDSISSSNWWSWVRQPPGKGLEWIGEVFHSGSTNYNPSLKSRVTISVDKSKNQFSLKLSSVTAADTAVYYCARAAVAGALDYWGQGTLVTVSSGGGGSGGGGSGGGGSGGGGSDIVMTQSPDSLAVSLGERATINCKSSQSVLYSSNNKNYLAWYQQKPGQPPNLLVYWASTRESGVPDRFSGAGSGTDFTLTISSLQAEDVAVYYCQQYYGTSWTFGQGTKVEIKTTTPAPRPPTPAPTIASQPLSLRPEACRPAAGGAVHTRGLDFACDIYIWAPLAGTCGVLLLSLVITKRGRKKLLYIFKQPFMRPVQTTQEEDGCSCRFPEEEEGGCELRVKFSRSADAPAYQQGQNQLYNELNLGRREEYDVLDKRRGRDPEMGGKPRRKNPQEGLYNELQKDKMAEAYSEIGMKGERRRGKGHDGLYQGLSTATKDTYDALHMQALPPR
notes: also called anti-DLL3 CAR with 17A2 scFv, on primary T cells
B10: 6H1 (other)
CAR: QITLRESGPTLVKPTQTLTLTCTFSGFSLSTSGLGVGWIRQPPGEALEWLALIYWNDDKRYSPSLKSRLSITKDTSKNQVVLIMTNMDPVDTATYYCVHRRIAAPGSVYWGQGTLVTVSSGGGGSGGGGSGGGGSGGGGSDIQMTQSPSSVSASVGDRVTITCRASQGISSWLAWYQQKPGKAPKLLISAASSLQSGVPSRFSGSGSGTDFTLTISSLQPEDFATYYCHQANSFPFTFGQGTKLEIKTTTPAPRPPTPAPTIASQPLSLRPEACRPAAGGAVHTRGLDFACDIYIWAPLAGTCGVLLLSLVITKRGRKKLLYIFKQPFMRPVQTTQEEDGCSCRFPEEEEGGCELRVKFSRSADAPAYQQGQNQLYNELNLGRREEYDVLDKRRGRDPEMGGKPRRKNPQEGLYNELQKDKMAEAYSEIGMKGERRRGKGHDGLYQGLSTATKDTYDALHMQALPPR
notes: also called anti-DLL3 CAR with 6H1 scFv, on primary T cells

What was measured:
[1] = biological target: T1, Flag tagged recombinant DLL3 (Adipogen) (Homo sapiens (Human), UniProt Q9NYJ7 27-492); test: flow cytometry, percent of T cells that recognise recombinant DLL3, Donor 116
T1 construct: Bought reagent; also called Flag-DLL3
T1 sequence: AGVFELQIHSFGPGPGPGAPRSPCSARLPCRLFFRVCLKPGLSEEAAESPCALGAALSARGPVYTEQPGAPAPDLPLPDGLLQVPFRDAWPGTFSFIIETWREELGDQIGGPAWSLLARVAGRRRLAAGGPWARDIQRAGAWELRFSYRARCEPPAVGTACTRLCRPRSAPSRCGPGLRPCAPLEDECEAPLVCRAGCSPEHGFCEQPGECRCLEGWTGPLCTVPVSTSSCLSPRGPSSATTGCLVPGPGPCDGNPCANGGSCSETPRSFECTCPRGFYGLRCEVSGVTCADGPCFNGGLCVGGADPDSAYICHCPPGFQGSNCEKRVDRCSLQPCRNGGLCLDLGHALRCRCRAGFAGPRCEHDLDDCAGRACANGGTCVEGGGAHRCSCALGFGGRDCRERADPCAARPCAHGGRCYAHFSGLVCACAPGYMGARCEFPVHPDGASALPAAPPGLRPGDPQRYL
Protocol: (§1) To determine the percentage of T cells that were successfully transduced with DLL3 CAR, T cells were first incubated with 1 ug/ml Flag tagged recombinant DLL3 (Adipogen) in PBS+1% BSA for 20 minutes at 4 C.

[2] = biological target: T1, Flag tagged recombinant DLL3 (Adipogen); test: flow cytometry, percent of T cells that recognise recombinant DLL3, Donor 419
Protocol: as §1

[3] = biological target: T1, Flag tagged recombinant DLL3 (Adipogen); test: flow cytometry, primary T cells with the CAR, 1 ug/ml Flag tagged recombinant DLL3, PE anti-Flag
Protocol: as §1

[4] = biological target: T1, Flag tagged recombinant DLL3 (Adipogen); test: flow cytometry, percent of T cells that recognise recombinant DLL3, Donor 117
Protocol: as §1

Binder	Transduction efficiency [1] [%]	Transduction efficiency [2] [%]	Rec-DLL3 gate, percent of live CD3+ cells [3] [%]	Transduction efficiency [4] [%]
B1	67.5	49.4	–	–
B2	58.3	46.4	–	–
B3	48.9	35.2	–	–
B4	16.3	12.2	58	–
B5	52.4	–	52.4	50.8
B6	48.9	–	48.9	46.9
B7	66.9	49.1	69.1	–
B8	52.4	40.2	–	–
B9	68.6	43.3	59.1	–
B10	5.81	2.7	–	–
